Laboratory results reported in patent US20240254201A1 (ACADEMY OF MILITARY MEDICAL SCIENCE PLA, published 2024).

T1: EBOV GP on EBOV-eGFP-Mayinga authentic virus (Ebola virus (EBOV), Mayinga, UniProt Q05320 33-676)
T1 sequence: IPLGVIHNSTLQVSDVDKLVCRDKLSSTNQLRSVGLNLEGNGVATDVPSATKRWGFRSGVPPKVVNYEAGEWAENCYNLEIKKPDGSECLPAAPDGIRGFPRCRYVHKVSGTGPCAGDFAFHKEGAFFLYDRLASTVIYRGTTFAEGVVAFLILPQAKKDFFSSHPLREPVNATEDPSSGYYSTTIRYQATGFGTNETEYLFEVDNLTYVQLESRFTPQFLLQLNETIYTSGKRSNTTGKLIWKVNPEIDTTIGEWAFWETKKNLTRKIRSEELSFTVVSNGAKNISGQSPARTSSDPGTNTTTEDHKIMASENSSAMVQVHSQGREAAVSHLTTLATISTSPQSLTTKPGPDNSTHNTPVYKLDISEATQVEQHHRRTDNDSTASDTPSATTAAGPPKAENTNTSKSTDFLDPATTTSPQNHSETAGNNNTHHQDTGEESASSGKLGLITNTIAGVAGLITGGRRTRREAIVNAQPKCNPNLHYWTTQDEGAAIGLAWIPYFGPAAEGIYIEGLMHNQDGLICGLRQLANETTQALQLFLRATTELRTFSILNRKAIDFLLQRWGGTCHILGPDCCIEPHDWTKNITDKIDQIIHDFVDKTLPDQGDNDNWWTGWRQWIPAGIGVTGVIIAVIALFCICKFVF

T2: RESTV GP (RESTV, UniProt Q66799 34-638)
T2 sequence: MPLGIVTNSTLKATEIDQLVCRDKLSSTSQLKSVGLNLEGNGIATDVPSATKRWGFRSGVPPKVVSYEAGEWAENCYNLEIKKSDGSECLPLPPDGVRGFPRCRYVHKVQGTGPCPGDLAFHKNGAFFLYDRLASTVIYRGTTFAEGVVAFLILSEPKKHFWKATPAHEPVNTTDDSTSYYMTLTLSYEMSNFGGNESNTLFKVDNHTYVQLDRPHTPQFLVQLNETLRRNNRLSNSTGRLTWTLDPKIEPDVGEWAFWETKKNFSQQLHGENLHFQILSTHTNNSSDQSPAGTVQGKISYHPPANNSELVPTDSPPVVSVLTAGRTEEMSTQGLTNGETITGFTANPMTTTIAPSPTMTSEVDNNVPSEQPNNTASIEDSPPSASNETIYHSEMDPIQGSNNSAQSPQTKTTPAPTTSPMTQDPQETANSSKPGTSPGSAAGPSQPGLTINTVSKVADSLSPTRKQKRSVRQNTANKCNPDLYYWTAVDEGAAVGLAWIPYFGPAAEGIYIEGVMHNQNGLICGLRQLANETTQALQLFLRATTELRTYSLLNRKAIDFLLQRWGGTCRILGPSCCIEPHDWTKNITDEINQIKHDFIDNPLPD

T3: SUDV GP (Sudan ebolavirus (SUDV), UniProt Q7T9D9 33-637)
T3 construct: also called Sudan ebolavirus GP
T3 sequence: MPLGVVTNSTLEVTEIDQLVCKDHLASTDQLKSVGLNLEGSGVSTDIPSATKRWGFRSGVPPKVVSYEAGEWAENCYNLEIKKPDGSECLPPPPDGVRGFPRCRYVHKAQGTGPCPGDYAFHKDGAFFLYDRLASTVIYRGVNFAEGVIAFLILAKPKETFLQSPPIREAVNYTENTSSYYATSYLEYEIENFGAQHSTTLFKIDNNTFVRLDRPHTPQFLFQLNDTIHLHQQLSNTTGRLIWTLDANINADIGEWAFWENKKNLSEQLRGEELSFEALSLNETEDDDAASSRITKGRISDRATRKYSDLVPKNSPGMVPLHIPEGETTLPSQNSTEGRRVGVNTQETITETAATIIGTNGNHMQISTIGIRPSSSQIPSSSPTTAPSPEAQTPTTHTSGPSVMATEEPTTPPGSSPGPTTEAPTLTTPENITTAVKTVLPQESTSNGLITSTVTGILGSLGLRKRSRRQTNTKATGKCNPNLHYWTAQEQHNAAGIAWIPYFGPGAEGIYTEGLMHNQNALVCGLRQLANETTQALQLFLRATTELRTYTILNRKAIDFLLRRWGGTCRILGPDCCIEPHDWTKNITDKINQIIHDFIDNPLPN


Legend:
[1] = biological target: T1, EBOV GP on EBOV-eGFP-Mayinga authentic …; experiment: cell-based or functional assay
[2] = biological target: T2, RESTV GP; experiment: ELISA, purified antibody on coated GP (1 µg/mL)
[3] = biological target: T3, SUDV GP; experiment: ELISA, purified antibody on coated GP (1 µg/mL)
[4] = biological target: T4, sGP (Ebola virus (EBOV), UniProt P60170 33-324); experiment: ELISA on coated truncated GP
T4 construct: also called secreted glycoprotein

Row | Binder | IC50, EBOV-eGFP-Mayinga authentic virus neutralization test [1] [µg/mL] | EC50 [2] [µg/mL] | EC50 [3] [µg/mL] | binding result [4]
1 | MIL77-1 (antibody, V domains shown) VH: EVALEESGGGLMQPGGSMKLSCVASGFTFSNYWMNWVRQSPEKGLEWVAEIRLKSNNYATHYAESVKGRFTISRDDSKRSVYLQMNTLRAEDTGIYYCTRGNGNYRAMDYWGQGTSVTVSS VL: DIQMTQSPASLSVSVGETVSITCRASENIYSSLAWYQQKQGKSPQLLVYSATILADGVPSRFSGSGSGTQYSLKINSLQSEDFGTYYCQHFWGTPYTFGGGTKLEIKR | 3.12 | – | – | –
2 | monoclonal antibody 2G1 (antibody, V domains shown, also called 2G1-WT; wild-type 2G1) VH: EVQLVESGGGLVKRGGSLRLSCVVSGYTFGGYSMHWVRQAPGKGLEWVSGISSSSYYKYYADSVKGRFTISRDNAKNSLYLQMNSLRAEDTAVYYCARDMGYCSGGSCPNFDFWGQGTTVTVSS VL: DIQMTQSPSSLSASVGDRVTITCRTSQSISNYLNWYQQIPGKAPKLLISTASNLHSGVSSRFSGSGSGTHFTLTISSLQPEDFATYYCQQSYSTPSFGQGTKVEIKR | – | 0.026 | 0.0048 | no binding
